Assay results taken from patent US20220323583A1, “Pharmaceutical Formulations of Bi-Specific Diabodies and Use of the Same” (MacroGenics, Inc., priority 2019, published 2022).

Columns and labels:
[1] = target: T1, soluble recombinant human IL-3 receptor alpha (rhIL3Rα) (Homo sapiens, UniProt P26951); assay: ELISA (rhIL3Rα) DART-A quantitation assay (concentration, protein recovery); settings: for Actual Concentration: target 20 ng/mL
T1 construct: soluble recombinant human IL-3 receptor alpha (rhIL3Rα)
T1 sequence (P26951 19-305 limits assumed): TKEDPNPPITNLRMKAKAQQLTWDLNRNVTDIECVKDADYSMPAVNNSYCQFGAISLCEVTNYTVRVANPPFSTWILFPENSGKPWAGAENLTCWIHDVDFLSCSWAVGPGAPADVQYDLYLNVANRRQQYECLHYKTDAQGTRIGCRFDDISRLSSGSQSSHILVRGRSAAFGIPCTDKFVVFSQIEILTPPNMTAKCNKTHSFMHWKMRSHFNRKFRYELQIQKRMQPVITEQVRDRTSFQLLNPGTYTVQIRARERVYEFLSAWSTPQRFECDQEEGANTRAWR
Protocol: In brief, the assay plate was coated with soluble recombinant human IL-3 receptor alpha (rhIL3Rα) overnight. […] After addition of MSD Read Buffer, the plate was inserted into the Sector Imager 2400 Plate Reader. When a voltage was applied to the plate electrodes, the bound Sulfo-TAG label produces an ECL signal, which was captured by the plate reader. A quantitative measure of the ECL signal emitted by each well was recorded, and the ECL counts emitted by the standard calibrators were used to generate a standard curve using a 4-parameter logistic (4PL) fit.

[2] = Capillary isoelectric focusing (cIEF), charge variants; format: physicochemical; settings: for cIEF % AV (acidic variants) / cIEF % BV (basic variants) / cIEF % Main Peak: 0.1 mg/mL solution, Stabilizer 2
Protocol: cIEF analysis was performed to characterize drug product charge variants. The configuration included a iCE System with Alcott 720NV Autosampler. Samples were prepared to a final concentration of 0.1 mg/mL and centrifuged at 5±3° C. for 40 minutes prior to analysis.

A498 = assay: Redirected killing of target cell line; format: cell-based; settings: A498 (CD123 negative)
[3] = tested on: primary AML specimens (BMNC, PBMC); assay: Incubation of primary AML bone marrow samples with DART-A; format: cell-based, human
Description: Upregulation of granzyme B and perforin levels in both CD8 and CD4 T cells was observed.

[4] = Post Infusion (Infusion Time = 96 Hrs)
[5] = Post Storage (Time = 72 Hrs), room temperature

B1: DART-A: sequence-optimized CD123×CD3 bispecific diabody; chains SEQ ID NO:42 and SEQ ID NO:44 covalently bonded by a disulfide bond (protein)
chain 1: QAVVTQEPSLTVSPGGTVTLTCRSSTGAVTTSNYANWVQQKPGQAPRGLIGGTNKRAPWTPARFSGSLLGGKAALTITGAQAEDEADYYCALWYSNLWVFGGGTKLTVLGGGGSGGGGEVQLVQSGAELKKPGASVKVSCKASGYTFTDYYMKWVRQAPGQGLEWIGDIIPSNGATFYNQKFKGRVTITVDKSTSTAYMELSSLRSEDTAVYYCARSHLLRASWFAYWGQGTLVTVSSGGCGGGEVAALEKEVAALEKEVAALEKEVAALEK
chain 2: DFVMTQSPDSLAVSLGERVTMSCKSSQSLLNSGNQKNYLTWYQQKPGQPPKLLIYWASTRESGVPDRFSGSGSGTDFTLTISSLQAEDVAVYYCQNDYSYPYTFGQGTKLEIKGGGSGGGGEVQLVESGGGLVQPGGSLRLSCAASGFTFSTYAMNWVRQAPGKGLEWVGRIRSKYNNYATYYADSVKDRFTISRDDSKNSLYLQMNSLKTEDTAVYYCVRHGNFGNSYVSWFAYWGQGTLVTVSSGGCGGGKVAALKEKVAALKEKVAALKEKVAALKE
modifications: interchain disulfide bond; First Polypeptide Chain of DART-A; Second Polypeptide Chain of DART-A
Question: What does the source list for B1?
Answer: Actual Concentration ([1]; Final PS80 0.1 mg/mL, Post 24 Hr Storage and 96 Hr Admin): 19.3 ng/mL; Actual Concentration ([1]; Final PS80 0.1 mg/mL, T0): 19.9 ng/mL; Actual Concentration ([1]; Final PS80 0.12 mg/mL, Post 24 Hr Storage and 96 Hr Admin): 20.6 ng/mL; Actual Concentration ([1]; Final PS80 0.12 mg/mL, T0): 21.6 ng/mL; DART-A Concentration derived from quantitation assay ([1]; Study 1, Stabilizer 1, dual-pump infusion RT, High (5000 ng/mL), Expected or Control (T0)): 313.7 ng/mL; DART-A Concentration derived from quantitation assay ([1]; Study 1, Stabilizer 1, dual-pump infusion RT, High (5000 ng/mL), T = 24 hours): 235.2 ng/mL; DART-A Concentration derived from quantitation assay ([1]; Study 1, Stabilizer 1, dual-pump infusion RT, High (5000 ng/mL), T = 48 hours): 294.3 ng/mL; DART-A Concentration derived from quantitation assay ([1]; Study 1, Stabilizer 1, dual-pump infusion RT, High (5000 ng/mL), T = 72 hours): 254.4 ng/mL; DART-A Concentration derived from quantitation assay ([1]; Study 1, Stabilizer 1, dual-pump infusion RT, Low (100 ng/mL), Expected or Control (T0)): 10.6 ng/mL; DART-A Concentration derived from quantitation assay ([1]; Study 1, Stabilizer 1, dual-pump infusion RT, Low (100 ng/mL), T = 24 hours): 6.7 ng/mL; DART-A Concentration derived from quantitation assay ([1]; Study 1, Stabilizer 1, dual-pump infusion RT, Low (100 ng/mL), T = 48 hours): 12.9 ng/mL; DART-A Concentration derived from quantitation assay ([1]; Study 1, Stabilizer 1, dual-pump infusion RT, Low (100 ng/mL), T = 72 hours): 11.0 ng/mL; concentration as prepared, DART-A quantitation assay ([1]; Study 1, high concentration (target 5000 ng/mL)): 5067.5 ng/mL; concentration as prepared, DART-A quantitation assay ([1]; Study 1, low concentration (target 100 ng/mL)): 116.7 ng/mL; DART-A Concentration derived from quantitation assay ([1]; Study 2, Stabilizer 1, cassette 25° C., 100 rpm, High (5000 ng/mL), T = 0): 5398.7 ng/mL; DART-A Concentration derived from quantitation assay ([1]; Study 2, Stabilizer 1, cassette 25° C., 100 rpm, High (5000 ng/mL), T = 24 hours): 5241.2 ng/mL; DART-A Concentration derived from quantitation assay ([1]; Study 2, Stabilizer 1, cassette 25° C., 100 rpm, High (5000 ng/mL), T = 48 hours): 4967.5 ng/mL; DART-A Concentration derived from quantitation assay ([1]; Study 2, Stabilizer 1, cassette 25° C., 100 rpm, High (5000 ng/mL), T = 72 hours): 4916.7 ng/mL; DART-A Concentration derived from quantitation assay ([1]; Study 2, Stabilizer 1, cassette 25° C., 100 rpm, Low (100 ng/mL), T = 0): 110.1 ng/mL; DART-A Concentration derived from quantitation assay ([1]; Study 2, Stabilizer 1, cassette 25° C., 100 rpm, Low (100 ng/mL), T = 24 hours): 115.5 ng/mL; DART-A Concentration derived from quantitation assay ([1]; Study 2, Stabilizer 1, cassette 25° C., 100 rpm, Low (100 ng/mL), T = 48 hours): 103.8 ng/mL; DART-A Concentration derived from quantitation assay ([1]; Study 2, Stabilizer 1, cassette 25° C., 100 rpm, Low (100 ng/mL), T = 72 hours): 106.2 ng/mL; DART-A Concentration derived from quantitation assay ([1]; Study 3, Stabilizer 1, cassette 37° C., 100 rpm, Low (100 ng/mL), T = 0): 111.4 ng/mL; DART-A Concentration derived from quantitation assay ([1]; Study 3, Stabilizer 1, cassette 37° C., 100 rpm, Low (100 ng/mL), T = 72 hours): 99.4 ng/mL; DART-A Concentration derived from quantitation assay ([1]; Study 3, Stabilizer 1, cassette 37° C., 100 rpm, second group, target concentration not given, T = 0): 5682.9 ng/mL; DART-A Concentration derived from quantitation assay ([1]; Study 3, Stabilizer 1, cassette 37° C., 100 rpm, second group, target concentration not given, T = 72 hours): 4661.6 ng/mL; charge heterogeneity by cIEF ([2]; 0.1 mg/mL in Stabilizer 2 dosing solution, 72-hour RT storage and administration): minor changes within the variability of the analytical method; cIEF % AV (acidic variants) [2, 4]: 31.4%; cIEF % BV (basic variants) [2, 4]: 3.4%; cIEF % Main Peak [2, 4]: 65.2%; cIEF % AV (acidic variants) [2, 5]: 29.1%; cIEF % BV (basic variants) [2, 5]: 3.9%; cIEF % Main Peak [2, 5]: 67.0%; cIEF % AV (acidic variants) ([2]; T = 0 Hrs): 28.3%; cIEF % BV (basic variants) ([2]; T = 0 Hrs): 4.4%; cIEF % Main Peak ([2]; T = 0 Hrs): 67.3%; Max % Killing (A498): No activity; EC50, redirected killing (A498; E:T = 10:1): No activity; leukemic cell population [3]: depletion of the leukemic cell population over time; residual T cells (CD4 and CD8) [3]: expansion of the residual T cells
